According to the DeepSol protein solubility set:

Assay: soluble on expression in E. coli; label from the status in PepcDB or PDB records

Row | Sequence | soluble on expression in E. coli
1 | ADKKRALEKEDMERLMKDIPKQLHSGNRELQRARGFFILMFLLRGMPFVDLAYLKKHDIDGNVLTYRRRKTGRMLTVTLLPEAVKLIKQHMNTDPAFPYLFSLISSKEGTEEAYKEYQLALRNFNYQLMILKQVLGLTTDLSSYTARHTWATMAYYCEVHPGVISEAMGHSSITVTETYLKPFKNKKIDEANVMVFSSFRKSFSVGNCLN | not soluble
2 | MGSSESIVKLNVGGTVFVTLKSTLTKHHGIFKALVKTEMPAEDGDSFFIDRSPKHFETVLNYIRSGDVDLPDSENELKELKREAEYYSLEKLATLCQSSMPKIKSYKTADELLNMIANTKKVVVVIHYLAYKNQLHTIPLGFKFSEFVERNKDKAEVFIYEIKDEEELKDKPYVDDPNRVWSFCIFNSEWSENYPLKSLRDIQVQLDCFGDF | not soluble
3 | MGSDKIHHHHHHMRILTFTGKGGVGKTSVSAATAVRLSEMGHRTLVLSTDPAHSLSDSFNIQLGAEPTKIKENLHAIEVNPYVDLKQNWHSVQKYYTRIFMAQGVSGVMADEMTILPGMEELFSLLRIKRYKSAGLYDALVLDTAPTGETLRLLSLPDTLSWGMKAVKNVNKYIVRPLSKPLSKMSDKIAYYIPPEDAIESVDQVFDELEDIREILTDNVKSTVRLVMNAEKMSIKETMRALTYLNLYGFKVDMVLVNKLLDAQENSGYLEKWKGIQQKYLGEIEEGFSPLPVKKLKMYDQEIVGVKSLEVFAHDIYGDTDPSGMMYDEPPIKFVRQGDVYEVQLKLMFANPVDIDVWVTGDELFVQIGNQRKIITLPVSLTGLEPGDAVFKDKWLHIPFDLEKQGQHHRTREYNKA | not soluble
4 | MAEMGSKGVTAGKIASNVQKKLTRAQEKVLQKLGKADETKDEQFEQCVQNFNKQLTEGTRLQKDLRTYLASVKAMHEASKKLNECLQEVYEPDWPGRDEANKIAENNDLLWMDYHQKLVDQALLTMDTYLGQFPDIKSRIAKRGRKLVDYDSARHHYESLQTAKKKDEAKIAKAEEELIKAQKVFEEMNVDLQEELPSLWNSRVGFYVNTFQSIAGLEENFHKEMSKLNQNLNDVLVGLEKQHGSNTFTVKAQPSDNAPAKGNKSPSPPDGSPAATPEIRVNHEPEPAGGATPGATLPKSPSQSSLPAVVVETFPATVNGTVEGGSGAGRLDLPPGFMFKVQAQHDYTATDTDELQLKAGDVVLVIPFQNPEEQDEGWLMGVKESDWNQHKELEKCRGVFPENFTERVP | soluble
5 | MGGSHHHHHHGMASALLDIECFTYLHRALESSIAPIVIFASNRGNCVIRGTEDITSPHGIPLDLLDRVMIIRTMLYTPQEMKQIIKIRAQTEGINISEEALNHLGEIGTKTTLRYSVQLLTPANLLAKINGKDSIEKEHVEEISELFYDAKSSAKILADQQDKYMK | not soluble
6 | MKPALHAIDATLPAPPTYTPAGNECALFEHAWKRRVPLLLKGPTGCGKTRFVAHMAARLGLPLFTVSCHDDLTAADLTGRYLLKGGETVWVDGPLTRAVRQGGICYLDEVVEARKDVAVVLHPLADDRRVLPLERTGEELQAPPHFMLVVSYNPGYQSLLKALKPSTRQRFAAIEFGFLAPEQEIAVVAAESGLPSERVAPLVALAGRLRKLKGHDLEEGVSTRLLVYCASLISEGLPVRDAVLAGLIEPLTDDADVKAALIEVAGVVIGLEHHHHHH | soluble
7 | MDDLADCREVFAYFDSKGDERISVQQVGDVLRALGQNPTEAEIHKCVGSFDREARLSFEDFVPIFQSVSKNREKHTVEEFVEGLSHFDKEGNGMINVAELRHLLTTLGERLSDEDVDQLLSGHNDSHGNVNISDFVRAVMNS | soluble
8 | MNYAGSEKRVAIEEKKKIVEFLWKRNEEQEIVGHIYIGRIVRTIAGMNAAFVNIGLEKHAYLSYDDVPSAYRIHEGQAVLVQVVKEAIDTKGPKLTANIEFTGKYVVYMPYDEMRAVSRKIKNNKRRQQLLQIEVEGTGGYIFRSASEKGEIEEIQAEMQRLQQLYEELKRKEEQGKAPLLLHRPATFLDRVFQENPIETIEKVVVDTRSIVKELEEKVGKEKVSFYNEKSSMFNHFGIEREIEKALQKIVWLPNGAYLIVEQMETMTVIDVNTGKFTGKQNLQDTVLRTNELAAEEIARQLRLRDIGGMILIDFINMKRREDKEKVRECLVAAMQNDRTYTRVLGFTELGILEMTRKRKKHSLRDVLLEECAPCKATGYVMSYETIAYELERELLTYGNIEDEAVLISAPKELQKQFLQKELQKNIPFEIYFKDDMIEKYAIIRFGSKKEIVERKNS | not soluble
9 | GSHMASMTGGQQMGRGSENLYFQGNPILAGLGFSLPKRQVSNHDLVGRINTSDEFIVERTGVRTRYHVEPEQAVSALMVPAARQAIEAAGLLPEDIDLLLVNTLSPDHHDPSQACLIQPLLGLRHIPVLDIRAQCSGLLYGLQMARGQILAGLARHVLVVCGEVLSKRMDCSDRGRNLSILLGDGAGAVVVSAGESLEDGLLDLRLGADGNYFDLLMTAAPGSASPTFLDENVLREGGGEFLMRGRPMFEHASQTLVRIAGEMLAAHELTLDDIDHVICHQPNLRILDAVQEQLGIPQHKFAVTVDRLGNMASASTPVTLAMFWPDIQPGQRVLVLTYGSGATWGAALYRKPEEVNRPC | soluble
10 | NYRSRAAYKLIELDNKYLFLKKNKIILDIGCYPGSWCQVILERTKNYKNKIIGIDKKIMDPIPNVYFIQGEIGKDNMNNIKNINYIDNMNNNSVDYKLKEILQDKKIDIILSDAAVPCIGNKIDDHLNSCELTLSITHFMEQYINIGGTYIVKMYLGSQTNNLKTYLKGMFQLVHTTKPKASRNESREIYLVCKNFLGRKK | soluble
11 | MSAEVTLHDNIHYDLSADCQHCFGLCCVALPYAKSADFAFDKDGGTPCRNLQSNYQCSIHKDLREKGFRGCSAYECFGAGQKVSQITYEGKDWRNSPETANQMFDVFPIMQQLHEMLWYLHEALSIDIAKPIHSELRTTFEKIERLTRLSKERLLTLQVDEHRAEVNEWLLKTSELVRAQARHPKLPKKVSRGSVLIGAKLKGLDLRGANLRGALLIAADLRNADLRMTDFIGADMRDADLSGADLTGSIFLTQAQVNAANGDSNTKLPLSVRTPAHWKLEHHHHHH | not soluble
12 | EKGFKVVVLESAKVGFGATGRNGGQIVNSYSRDVDVIESRYDQNQAKALCDMIFEGGDIIRGLIDKYDINCDYKQGGLFTALNSKQLKGLEEHKKNWERYGNDQLTLLDAGEVEQAVGTKVYTGGLLDMRGGHIHPLKLALGEAAAFISLGGQIFEQSAVVSIDKGMNPVVKTAQGSVKSK | not soluble
13 | MGSDKIHHHHHHVESLLTAADLHIHTTASDGTASPEAVLSYVATETDLRVIAITDHDTLRGALYARERASHYGIDVIVGCEISTRSGHLLALFIEQPVPAGLSVTETVARIHDQGGMAFAAHPFGMLVPSIGRRHLLGPERTDVDWMQLDGIEVFNASLWNPMNNERAARCAQRWGLTHIGGSDAHNLTMIGAGRTLFAGTGAADLRRALQRRATLVHGRYWGWRGVAGVVRERVWRQFGRPVESVS | not soluble
14 | MDEIWFAGIDLGGTTIKLAFINQYGEIQHKWEVPTDKTGDTITVTIAKTIDSKLDELQKPKHIIKYIGMGAPGPVDMAAGVVYETVNLGWKNYALKNHLETETGIPAVIENDANIAALGEMWKGAGDGAKDVILVTLGTGVGGGIIANGEILHGINGAGGEIGHICSIPEGGAPCNCGKTGCIETIASATGIVRIAKGKIANAKKTTRLKATEQLSARDVFEAAGENDEIALEVVDYVAKHLGLVLGNLASSLNPSKIVLGGGVSRAGELLRSKVEKTFRKCAFPRAAQAADISIAALGNDAGVIGGAWIAKNEWLKHQNCLEHHHHHH | soluble
15 | MAHHHHHHMPLPPLEEAPRSMTRRNYLVERNRLRVSAYAPTRRELEEEDIRMAQTREERRRNMLNSWKSQSMYNPDLTRPLPGGGPRSKRMKEAATLKNPNYYKIVKEEEAQLKAERTAMYRADVLQQLKDREEYLRKWREDEKAYVSSLVESNKEQARKLEEREREEARAEKEYMNRMRESNLRELEQKRMKEREREEYELSLIRTVQAREKEKAETEERRARDMKQMMRRENEEYHRSIKKKQKEDKAREEAELKAILEYNATLAERERQEQKQRRDQYKAEFEETIEKQKEFFRTHNYDEPPESIRERNEKAAAALALIKKEERLRLADRRREYRQELMQQIREKQEWQLTHIDGV | not soluble
16 | MAHHHHHHMQTHISRAVEEGRHTKEAAAYFESIMNDKPEFRLFMREAQRLIGDQDPRGLTRYQQTHYSEKLSRYMSGVASERLMRAHTEDENTRRHTHDGSPTGENYWFEAGQILASPTVPSFVKDEVLREMRGGRKEDSPAFEEPKAVAEMEADDEGFAEHLRRQRKRLLSPDDHLN | soluble
17 | MGHHHHHHSHRSIGLKVGLEIHQQLDTREKLFCSCPAELGEEEHDEFVRQLRPTRSELGDVDPAALFEWRKGRLYIYQAPLNHSCLVEADEEPPHPINREAVAVAVAVAKALGSAIVDEVHVMRKTVIDGSNTSGFQRTAIVALGGSIRVGSKEVPIETIVIEEDAARKVGEKGRYVVYRLDRLGIPLIEIATAPVIESPGEAREVALAIGTMLRLTGKVKRGLGTIRQDLNVSIRGGAKTEIKGVQRLELIPRVIEYEVLRQLSLLRIR | not soluble
18 | TGKFKWDLGGNISFVKNKLLSLIEGSEMYVVPSSGSNLLGGSMHALINGEPISTFYMLKMEGIYQRDDEVPAKLYAKGVRAGDVRYFDYNEDGDITDADRVNVGKAIPDFYGGITSNFSYKGFDLSLFGQFSVGGKVMAAWRGVNGSEGTDHLGLALSNVKVGDRGESVEQFFNISKEVANGYWRGEGTSNSIPRPVRIGVHTGYDYDYNVQTSTRYLEDASYFKLKTVTLGYTLPESITKKIHVNSLRFYVSADNLLAFTKYSGYDPETSFSGSPGDSNYGVDFGLQPVLRTFIFGLNLNF | not soluble
19 | MAHHHHHHMKAKGPVKIVLFGAPGVGKGTFAEILSKKEKLKHINMGSILRDEIKNKTTIGREIHKVVTSGNLVADELVVKIVKGEIAKVTAQDGHFKGFILDGFPRNLLQCKQLVEITSIDLFVNIHMPRHILLKKIMGRRICHECNRNFNIAHIRDDPYDMPPILPPPECEKCKGNPKLQRRSDDEEEIVAHRLDTYESTNSHLINFFKNSNCNLVDFEIQRGLRDFDSFYRVVGQHL | not soluble
20 | GGSGWNADNVDPSQCIKQSGVQYTYNSGVSVCMQGLNEGKVRGVSVSGVFYYNDGTTSNFKGVVTPSTPVNTNQDINKTNKVGVQKYRALTEWVGSRSHHHHHH | soluble
21 | MSLSYPWPDAGTALNAISTPMPVIDEDRLAANILRAQSYLDAHGKTFRPHIKTHKIPAIAKQQLQAGAIGINCQKVSEAEVFADAGFEDILITYNILGAAKLSRLKALNARIGRLSVVADSAVTIAGLADTFDAARPLAVLVECDTGGKRCGVQTPEAALALAEQIVSASGLIFRGILTYPAPGGAEMVEKFIRETMALLATKGIDCPVRSSGGSPDFYSAHLVASATEHRAGTYIYNDRSMLRAGHCSAGDLAMHVLATVVSKPTADRAVLDSGSKALTSDLLGFNDYGLLEGYEGAKIISLSEEHAVVDLSGCTGARPEIGDVVQVVPNHTCVVSNLFDRMVFHRNGVVTRVEQVAARGTVWEGHHHHHH | soluble
